Measured values taken from the RNAGym collection of RNA variant scans (doi:10.7554/elife.80360).

B1: HDV Ribozyme (parent)
chain: GGCCGGCAUGGUCCCAGCCUCCUCGCUGGCGCCGGCUGGGCAACAUUCCGAGGGGACCGUCCCCUCGGUAAUGGCGAAUGGGACCCA

Variants of: B1
Assay: self-cleavage, relative activity (ratio to wild type); higher = more cleavage; co-transcriptional
With GGCCGGCAUGGUCCCAGCCUCCUCGCUUGCGCCGGCUGGGCAACAUUCCGAGGGGACCGUCCCCUCGGUAAUGGCGAAUGGAACCCA [G28U G82A] the self-cleavage was 0.191. Work on GGCCGGCAUGGUCCCAGCCUCCUCGCUGACGCCGGCUAGGCAACAUUCCGAGGGGACCGUCCCCUCGGUAAUGGCGAAUGGGACCCA [G29A G38A] yielded a self-cleavage of 0.0623. In the case of GGCCGGCAUGGUCCCAGCCUCCUCGCUGACGCCGGCUCGGCAACAUUCCGAGGGGACCGUCCCCUCGGUAAUGGCGAAUGGGACCCA [G29A G38C], the self-cleavage is reported as 0.0292. For GGCCGGCAUGGUCCCAGCCUCCUCGCUUGCGCCGGCUGGGCAACAUUCCGAGGGGACCGUCCCCUCGGUAAUGGCGAAUUGGACCCA [G28U G80U], the self-cleavage was 0.1. With GGCCGGCAUGGUCCCAGCCUCCUCGCUGACGCCGGCUGGGCAACAUCCCGAGGGGACCGUCCCCUCGGUAAUGGCGAAUGGGACCCA [G29A U47C] the self-cleavage was 0.16. GGCCGGCAUGGUCCCAGCCUCCUCGCUUGCGCCGGCUGGGCAACAAUCCGAGGGGACCGUCCCCUCGGUAAUGGCGAAUGGGACCCA [G28U U46A] showed a self-cleavage of 0.111. Variant GGCCGGCAUGGUCCCAGCCUCCUCGCUGAGGCCGGCUGGGCAACAUUCCGAGGGGACCGUCCCCUCGGUAAUGGCGAAUGGGACCCA [G29A C30G] has a self-cleavage of 0.0415. Variant GGCCGGCAUGGUCCCAGCCUCCUCGCUGACGCCGGCUGGGCAACAUUCCCAGGGGACCGUCCCCUCGGUAAUGGCGAAUGGGACCCA [G29A G50C] has a self-cleavage of 0.121. GGCCGGCAUGGUCCCAGCCUCCUCGCUGACGCCGGCUGGGCAACAUUCCGAGGGGACCGUCCCCUCGGGAAUGGCGAAUGGGACCCA [G29A U69G] showed a self-cleavage of 0.0475. GGCCGGCAUGGUCCCAGCCUCCUCGCUGACGCCGGCUGGGCAACAUUCCGAGGGGACCGUCCCCUCGGAAAUGGCGAAUGGGACCCA [G29A U69A] gave a self-cleavage of 0.172. Work on GGCCGGCAUGGUCCCAGCCUCCUCGCUGACCCCGGCUGGGCAACAUUCCGAGGGGACCGUCCCCUCGGUAAUGGCGAAUGGGACCCA [G29A G31C] yielded a self-cleavage of 0.154. Variant GGCCGGCAUGGUCCCAGCCUCCUCGCUGACUCCGGCUGGGCAACAUUCCGAGGGGACCGUCCCCUCGGUAAUGGCGAAUGGGACCCA [G29A G31U] has a self-cleavage of 0.0272. For GGCCGGCAUGGUCCCAGCCUCCUCGCUGACACCGGCUGGGCAACAUUCCGAGGGGACCGUCCCCUCGGUAAUGGCGAAUGGGACCCA [G29A G31A], the self-cleavage was 0.0723. With GGCCGGCAUGGUCCCAGCCUCCUCGCUGACGCCGGCUGGGCAACAUUCCGAGGGGACCGUCCCCUCGGUAAUGGCGCAUGGGACCCA [G29A A77C] the self-cleavage was 0.111. Work on GGCCGGCAUGGUCCCAGCCUCCUCGCUGACGCCGGUUGGGCAACAUUCCGAGGGGACCGUCCCCUCGGUAAUGGCGAAUGGGACCCA [G29A C36U] yielded a self-cleavage of 0.0264. Work on GGCCGGCAUGGUCCCAGCCUCCUCGCUGACGCCGGCUGGGCAACAUUCCGAGGGGACCGUCCCCUCGGUAAUCGCGAAUGGGACCCA [G29A G73C] yielded a self-cleavage of 0.0639. In the case of GGCCGGCAUGGUCCCAGCCUCCUCGCUGACGCCGGCUGGGCAACAUUCCGAGGGGACCGUCCCCUCGGUAAUAGCGAAUGGGACCCA [G29A G73A], the self-cleavage is reported as 0.143. In the case of GGCCGGCAUGGUCCCAGCCUCCUCGCUGACGCCGGCUGGGCAACAUUCCGAGGGGACCGUCCCCGCGGUAAUGGCGAAUGGGACCCA [G29A U65G], the self-cleavage is reported as 0.166. Variant GGCCGGCAUGGUCCCAGCCUCCUCGCUGACGCCGGCUGGGCAACAUUCGGAGGGGACCGUCCCCUCGGUAAUGGCGAAUGGGACCCA [G29A C49G] has a self-cleavage of 0.225. With GGCCGGCAUGGUCCCAGCCUCCUCGCUGACGCCGGCUGGGCAACAUUCCGAGGGGACCGACCCCUCGGUAAUGGCGAAUGGGACCCA [G29A U60A] the self-cleavage was 0.101. In the case of GGCCGGCAUGGUCCCAGCCUCCUCGCUGACGCCUGCUGGGCAACAUUCCGAGGGGACCGUCCCCUCGGUAAUGGCGAAUGGGACCCA [G29A G34U], the self-cleavage is reported as 0.0601. Variant GGCCGGCAUGGUCCCAGCCUCCUCGCUUGCGCCGGCUGGGCAACAUUCCGAGGGGACCGUCCCCUCGGUAAUGGCGAAUGCGACCCA [G28U G81C] has a self-cleavage of 0.0282. Work on GGCCGGCAUGGUCCCAGCCUCCUCGCUUGCGCCGGCUGGGCAACAUUCCGAGGGGACCGUCCCCUCGGUAAUGGCGAAUGAGACCCA [G28U G81A] yielded a self-cleavage of 0.158. GGCCGGCAUGGUCCCAGCCUCCUCGCUUGCGCCGGCUGGGCAACAUUCCGAGGGGACCGUCCCCACGGUAAUGGCGAAUGGGACCCA [G28U U65A] gave a self-cleavage of 0.0339. With GGCCGGCAUGGUCCCAGCCUCCUCGCUGACGCCGGCUGGGCAACAUUCCGAGGGGACCGUCCCCUCGGUAAUGGCGAAUUGGACCCA [G29A G80U] the self-cleavage was 0.0283. GGCCGGCAUGGUCCCAGCCUCCUCGCUGACGGCGGCUGGGCAACAUUCCGAGGGGACCGUCCCCUCGGUAAUGGCGAAUGGGACCCA [G29A C32G] gave a self-cleavage of 0.0219. GGCCGGCAUGGUCCCAGCCUCCUCGCUGACGCCGGCUGGGCAACAUUCCGAGGGGACCGUCCCCUCGGUAAUGGCUAAUGGGACCCA [G29A G76U] showed a self-cleavage of 0.428. With GGCCGGCAUGGUCCCAGCCUCCUCGCUGACGCCGGCUGGGCAACAUUCCGAGGGGACCGUCCCCUCGGUAAUGGCAAAUGGGACCCA [G29A G76A] the self-cleavage was 0.328. GGCCGGCAUGGUCCCAGCCUCCUCGCUGACGCCGGCUGGGCAACAUUCCGAGGGGACCGUUCCCUCGGUAAUGGCGAAUGGGACCCA [G29A C61U] showed a self-cleavage of 0.274. With GGCCGGCAUGGUCCCAGCCUCCUCGCUGACGCCGGCUGGGCAACAUUCCGAGGGGACCAUCCCCUCGGUAAUGGCGAAUGGGACCCA [G29A G59A] the self-cleavage was 0.179. GGCCGGCAUGGUCCCAGCCUCCUCGCUGACGCCGGCUGGGCAACAUUCCGAGGGGACCCUCCCCUCGGUAAUGGCGAAUGGGACCCA [G29A G59C] gave a self-cleavage of 0.123. GGCCGGCAUGGUCCCAGCCUCCUCGCUGCCGCCGGCUGGGCAGCAUUCCGAGGGGACCGUCCCCUCGGUAAUGGCGAAUGGGACCCA [G29C A43G] gave a self-cleavage of 0.0692.
